How the values were obtained:
[1] = Stability in plasma, rat; type: in vitro ADME; conditions: for half-life: 37° C., read-out: Mean T1/2 (converted)
Procedure: (§1) Working solutions of test compounds were prepared in PBS (pH 7.4). Propantheline was used as positive control for human, monkey, dog and mouse plasma in the assay. Mevinolin was used as positive control for rat plasma in this assay. 1 mM propantheline working solution was prepared in acetonitrile. 1 mM mevinolin working solution was prepared in DMSO. Incubation buffer of 475 μL plasma for each cell was added into the incubation plate and pre-warmed at 37° C. for 15 minutes. After the pre-incubation, 25 μL of working solution (test compounds or control compounds) was spiked to plasma. For Compound 5 and Compound 3, the final concentration of organic concentration was 0%. For Taxol, the final concentration of organic solvents was 0.25%. The assay was performed in duplicate. The reaction samples were incubated at 37° C. Aliquots of 50 μL were taken from the reaction samples at 0, 0.25, 0.5, 1, 2, 4, 6, 8 and 24 hours. The reactions were stopped by the addition of 450 μL of ice-cold quench solution (methanol with 2% FA containing internal standards). All samples were vortexed for 10 minutes, following by centrifugation at 3,220 g for 30 minutes to precipitate proteins. 100 μL of the supernatant from each well was transferred to a new plate. The supernatant was diluted with ultrapure water. Samples were analyzed by LC-MS/MS. All calculations were carried out using Microsoft Excel. Peak area ratios were determined from extracted ion chromatograms. Percent compounds remaining at each time point were calculated by the following equation: Remaining Percentaget min(%)=Peak Area Ratiot min/Peak Area Ratio0 min×100
(§2) Peak Area Ratiot min is peak area ratio of control and test compounds at t min; and
(§3) Peak Area Ratio0 min is peak area ratio of control and test compounds at zero time point.
(§4) The slope value, k, was determined by linear regression of the natural logarithm of the remaining percentage of the parent drug vs. incubation time curve.
(§5) The in vitro half-life (in vitro t1/2) was determined from the slope value: in vitro t1/2=(0.693/k)

[2] = Stability in plasma, human; type: in vitro ADME; conditions: for half-life: 37° C., read-out: Mean T1/2 (converted)
Procedure: as §1, §2, §3, §4, §5

[3] = test system: human gastric cancer (NUGC-4) cells; assay: Efficacy against gastric cancer; type: in vivo, mice; conditions: NUGC-4 model; 9.6 mg/kg QD5 (days 0, 5, 10)
Procedure: The fluorescence area of the tumor was measured over the course of the study (FIG. 13). After approximately Day 15 in the mice administered PBS, the formation of bloody ascites blocked the fluorescence reading. […] FIG. 14 is a graph comparing the fluorescence area on Day 21 of the study of the mice administered vehicle and the mice administered Compound 3. FIG. 15 is a graph comparing the tumor weight of the mice administered vehicle and the mice administered Compound 3 on Day 21.

[4] = Safety: animal body weight change after dosing, tumor bearing mice; conditions: for Weight on day 21 (MEAN ± SD) / Weight on day 0 (MEAN ± SD): IP Q5D (day 0, 5, 10); for Weight on day 21 (MEAN ± SD) / Weight on day 0 (MEAN ± SD) / Weight gain (%): Taxol 10 mg/kg; for Weight on day 0 (MEAN ± SD): baseline; for Weight gain (%): day 0 to day 21, IP Q5D
Text: Animals: Female athymic nude mice were used in this study. The experimental mice were purchased from Shibefu (Beijing) Biotechnology Co., Ltd. (QC number: SCXK Beijing 2019-0010) and maintained in a High Efficiency Particulate Air Filter (HEPA) filtered environment with cages, food and bedding sterilized by irradiation or autoclaving.
Establishment of peritoneal disseminated metastasis model of human ovarian cancer: Human ovarian cancer (SKOV-3-GFP) cells in logarithmic growth period were digested with 0.25% trypsin, rinsed with phosphate buffer (PBS) twice, centrifuged, and suspended with serum-free RPMI1640 medium. Cell suspension (6×10^6/120 μL/mouse) was injected into the peritoneal cavity of each experimental mouse for the establishment of peritoneal disseminated metastasis model of human ovarian cancer.
Groups, testing articles and treatment protocols: Day 4 after cell inoculation, all mice were subjected to systemic imaging using FluorVivo Model-100 (INDEC biosystems, CA, USA). Mice with a small deviation from average tumor load were enrolled in the study. All animals were randomly allocated to the different study groups, 6 mice in each group. Dosing schedule was Q5D (day 0, 5, 10), dosing volume was 10 μl/g, and administration route was intraperitoneal injection. Each dose of Compound 3 or Compound 5 was 9.6 mg/kg (equimolar to 2.5 mg/kg Taxol) and each dose of Taxol was 10 mg/kg. Taxol working solutions were prepared from 6 mg/mL stock solution, while Compounds were dissolved in PBS (pH 7.4) and filtered through 0.22 μm filter.
Monitoring of the experimental mice: During the period of the study, all experimental mice were checked daily for mortality or signs of morbidity. Images of tumor progression were acquired three times a week during the period of the study with the FluorVivo imaging system, Model 100/Mag (INDEC BioSystems, CA, USA). The body weights of the mice were measured three times a week during the period of the study.
Study endpoint: On Day 21 after administration, animals were euthanized by inhalation of excessive anesthetics. All tumors were exposed for imaging (under the same exposure conditions), after which the tumors were removed and weighed with an electronic balance (Sartorius BS 124 S, Germany). The tumor samples were then stored in formalin solution.
Statistical methods used in efficacy evaluation: Comparison of body weights and tumor burdens in different groups were analyzed using EXCEL t-test with an α=0.05 (two-sided).

[5] = test system: human pancreatic cancer (BXPC-3) cells; assay: Efficacy against pancreatic cancer; type: in vivo, mice; conditions: BXPC-3 model; 9.6 mg/kg QD5 (days 0, 5, 10); vs vehicle
Procedure: Following the procedure described in Biological Example 5, mice were injected with human pancreatic cancer (BXPC-3) cells and treated with Compound 3 (9.6 mg/kg) QD5 (dosing on days 0, 5, and 10) to study the efficacy of Compound 3. […] FIG. 11 is a graph comparing the fluorescence area on Day 17 of the study of the mice administered vehicle and the mice administered Compound 3. FIG. 12 is a graph comparing the tumor weight of the mice administered vehicle and the mice administered Compound 3 on Day 17.

[6] = Table 7A (Compound 3 set), Compd 3 9.6 mg/kg
[7] = separate experiment, 38.4 mg/kg, 3 Q5D doses, tumor bearing mice
[8] = Table 7B (Compound 5 set), Compd 5 9.6 mg/kg

Structure (SMILES)	Percent Increase of T1/2, Compound 3 over Compound 5 [1]	half-life [1]	Percent Increase of T1/2, Compound 3 over Compound 5 [2]	half-life [2]	fluorescence area of the tumor over the course of the study (FIG. 13) [3]	body weight higher compared with the vehicle (PBS) group ([4]; 9.6 mg/kg IP Q5D, end of experiment)	Weight on day 21 (MEAN ± SD) [4, 6]	Weight on day 0 (MEAN ± SD) [4, 6]	Weight gain (%) [4, 6]	Weight gain (%) ([4]; Table 7A (Compound 3 set), Compd 3 9.6 mg/kg, listed as Compd 3)	animal deaths [4, 7]	body weight change on Day 21 [4, 7]	fluorescence area of the tumor over the course of the study (FIG. 10) [5]	Weight on day 21 (MEAN ± SD) [4, 8]	Weight on day 0 (MEAN ± SD) [4, 8]	Weight gain (%) [4, 8]	Weight gain (%) ([4]; Table 7B (Compound 5 set), Compd 5 9.6 mg/kg, listed as Compd 5)	clinical signs after administration [4, 7]
CC(=O)N[C@@H](CSSCCCC(=O)OC(C(=O)O[C@H]1C[C@@]2(O)[C@@H](OC(=O)c3ccccc3)[C@@H]3[C@]4(OC(C)=O)CO[C@@H]4C[C@H](O)[C@@]3(C)C(=O)[C@H](OC(C)=O)C(=C1C)C2(C)C)[C@@H](NC(=O)c1ccccc1)c1ccccc1)C(=O)N[C@H](CCCNC(=N)N)C(=O)N[C@H](CCCNC(=N)N)C(=O)N[C@H](CCCNC(=N)N)C(=O)N[C@H](CCCNC(=N)N)C(=O)N[C@H](CCCNC(=N)N)C(=O)N[C@H](CCCNC(=N)N)C(=O)N[C@H](CCCNC(=N)N)C(=O)N[C@H](CCCNC(=N)N)C(N)=O (stereo partly drawn) [Compound 3, Ac-L-Cysteine (paclitaxel-4-mercaptobutanoate)-D-Arginine8-NH2]	50%	27 min	18.45%	73.2 min	fluorescence decreased over the course of the study	about 24%	18.5 ± 1.4	16.3 ± 1.0	about 13%	13%	no animal deaths were reported	+22.1%	fluorescence area increased in the vehicle-administered mice to a greater degree over the course of the study compared to the Compound 3-administered mice					
CC(=O)N[C@H](CSSCCCC(=O)O[C@@H](C(=O)O[C@H]1C[C@@]2(O)[C@@H](OC(=O)c3ccccc3)[C@@H]3[C@]4(OC(C)=O)CO[C@@H]4C[C@H](O)[C@@]3(C)C(=O)[C@H](OC(C)=O)C(=C1C)C2(C)C)[C@@H](NC(=O)c1ccccc1)c1ccccc1)C(=O)N[C@H](CCCNC(=N)N)C(=O)N[C@H](CCCNC(=N)N)C(=O)N[C@H](CCCNC(=N)N)C(=O)N[C@H](CCCNC(=N)N)C(=O)N[C@H](CCCNC(=N)N)C(=O)N[C@H](CCCNC(=N)N)C(=O)N[C@H](CCCNC(=N)N)C(=O)N[C@H](CCCNC(=N)N)C(N)=O [Compound 5, Ac-D-Cysteine (paclitaxel-4-mercaptobutanoate)-D-Arginine8-NH2]		18 min		61.8 min							One mouse in this group was found dead on Day 18	−2%		16.9 ± 1.1	16.9 ± 0.6	no change in body weight	0%	recumbent and their voluntary activities were reduced

From US12337037B2, “Taxol conjugate compounds, pharmaceutical compositions comprising the same, and methods for their use” (N1 Life, Inc, priority 2021, dated 2025)
